In PMC7097325:

Target: Influenza A nucleoprotein (NP), wild type (Influenza A virus A/WSN/33 (H1N1), UniProt P15682 1-498)
Experiment: EMSA

B1: 24-nt RNA oligomer (ssRNA)
RNA: UUUGUUACACACACACACGCUGUG
binding result: binds
